Legend:
[1] = molecular target: Pax2 (UniProt Q8IM96 175-301); experiment: EMSA; Native PAGE EMSA, probe 0.36 uM, LI-COR imaging; protein amounts in ng; buffer, salt, pH and temperature not given (cited to refs 43, 64); settings: protein: recombinant; tags: His
[2] = molecular target: Senseless (Sens) (UniProt Q9N658 413-520); experiment: as above; settings: protein: recombinant; tags: His
Senseless (Sens), sequence (Q9N658 413-520): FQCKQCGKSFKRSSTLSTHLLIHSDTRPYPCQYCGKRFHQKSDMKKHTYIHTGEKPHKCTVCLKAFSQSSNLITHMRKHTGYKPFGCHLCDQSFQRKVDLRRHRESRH

Pax2, sequence (Q8IM96 entry or part of it): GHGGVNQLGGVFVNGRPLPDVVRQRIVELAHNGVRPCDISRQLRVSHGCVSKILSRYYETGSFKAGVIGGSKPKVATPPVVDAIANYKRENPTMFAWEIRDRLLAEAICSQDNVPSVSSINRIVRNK

| Binder | binding result [1] | binding result [2] |
| --- | --- | --- |
| RhoA-WT (dsDNA) DNA 1: TCGTTGCAGTTCATTGATTGACATTTTTATTATGCATATTCGCTGGT DNA 2: ACCAGCGAATATGCATAATAAAAATGTCAATCAATGAACTGCAACGA | binds | binds |
| RhoA-SS (strong Sens site) (dsDNA) DNA 1: TCGTTGCAGTGCACTGATTGACATTTTTATTATGCATATTCGCTGGT DNA 2: ACCAGCGAATATGCATAATAAAAATGTCAATCAGTGCACTGCAACGA | – | binds |
| RhoA-PS (strong Pax2 site) (dsDNA) DNA 1: TCGTCACGGTTCATTGATTGACATTTTTATTATGCATATTCGCTGGT DNA 2: ACCAGCGAATATGCATAATAAAAATGTCAATCAATGAACCGTGACGA | binds | binds |
| RhoA-PM (Pax2 site mutant) (dsDNA) DNA 1: TCGGGTCAGTTCATTGATTGACATTTTTATTATGCATATTCGCTGGT DNA 2: ACCAGCGAATATGCATAATAAAAATGTCAATCAATGAACTGACCCGA | – | binds |
| RhoA-PSSS (strong Pax2 and Sens sites) (dsDNA) DNA 1: TCGTCACGGTGCACTGATTGACATTTTTATTATGCATATTCGCTGGT DNA 2: ACCAGCGAATATGCATAATAAAAATGTCAATCAGTGCACCGTGACGA | binds | binds |
| RhoA-SM (Sens site mutant) (dsDNA) DNA 1: TCGTTGCAGTTGGTTGATTGACATTTTTATTATGCATATTCGCTGGT DNA 2: ACCAGCGAATATGCATAATAAAAATGTCAATCAACCAACTGCAACGA | – | no binding |
| RhoA-SM/SM (dsDNA) DNA 1: TCGTTGCAGTTGGTTGATTGACATTTTTATTATGCATGGTTGATTGA DNA 2: TCAATCAACCATGCATAATAAAAATGTCAATCAACCAACTGCAACGA | – | no binding |
| RhoA-SM/SWT (dsDNA) DNA 1: TCGTTGCAGTTGGTTGATTGACATTTTTATTATGCATCATTGATTGA DNA 2: TCAATCAATGATGCATAATAAAAATGTCAATCAACCAACTGCAACGA | – | binds |
| RhoA-SM/SS (dsDNA) DNA 1: TCGTTGCAGTTGGTTGATTGACATTTTTATTATGCAGCACTGATTGA DNA 2: TCAATCAGTGCTGCATAATAAAAATGTCAATCAACCAACTGCAACGA | – | binds |

From publication PMC5902045, “Degenerate Pax2 and Senseless binding motifs improve detection of low-affinity sites required for enhancer specificity”
